Biological target: Bacillus pseudofirmus Mrp antiporter complex (hetero-heptamer MrpA-MrpG, one protomer) (Bacillus pseudofirmus) (UniProt Q9RGZ5)
Assay: cryo-EM structure; purified Mrp dimer fractions in 20 mM Tris-HCl pH 8.0, 150 mM NaCl, 0.05% LMNG, 1-2 mg/ml; dimer map 2.96 Å, symmetry-expanded protomer map 2.2 Å

- stoichiometry N: 2
Substance: Bacillus pseudofirmus Mrp antiporter complex (hetero-heptamer MrpA-MrpG, one protomer) (from UniProt Q9RGZ5 1-805; Q9RGZ4 1-144; Q9RGZ3 1-112; Q9RGZ2 1-493; Q9RGZ1 1-158; Q9RGZ0 1-91; Q9RGY9 1-119)
